Data on 3 molecules can be found in paper PMC3746069 (FEBS letters, 2013).

The labels stand for the following.
T1: Outer dynein arm docking complex subunit DC2 with C-terminal 6xHis (DC2-6xHis) (Chlamydomonas reinhardtii, UniProt A8JF70 1-552)
T1 sequence (looked up): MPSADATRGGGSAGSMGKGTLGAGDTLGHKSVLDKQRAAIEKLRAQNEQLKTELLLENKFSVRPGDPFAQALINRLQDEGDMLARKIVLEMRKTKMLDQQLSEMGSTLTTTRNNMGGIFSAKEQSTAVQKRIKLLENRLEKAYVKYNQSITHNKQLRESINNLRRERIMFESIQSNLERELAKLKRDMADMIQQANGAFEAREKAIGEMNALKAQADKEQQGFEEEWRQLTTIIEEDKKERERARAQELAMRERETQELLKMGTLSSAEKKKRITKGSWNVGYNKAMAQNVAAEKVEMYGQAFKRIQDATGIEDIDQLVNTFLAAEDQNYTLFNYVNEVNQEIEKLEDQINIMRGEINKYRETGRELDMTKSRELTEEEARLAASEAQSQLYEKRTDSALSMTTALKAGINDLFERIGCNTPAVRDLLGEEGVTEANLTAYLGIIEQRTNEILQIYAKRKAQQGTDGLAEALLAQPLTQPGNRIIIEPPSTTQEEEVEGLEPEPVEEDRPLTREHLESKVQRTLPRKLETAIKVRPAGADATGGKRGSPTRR

T2: Outer arm dynein intermediate chain 1 with N-terminal 6xHis (His-IC1) (Chlamydomonas reinhardtii, UniProt Q39578 1-683)
T2 sequence (looked up): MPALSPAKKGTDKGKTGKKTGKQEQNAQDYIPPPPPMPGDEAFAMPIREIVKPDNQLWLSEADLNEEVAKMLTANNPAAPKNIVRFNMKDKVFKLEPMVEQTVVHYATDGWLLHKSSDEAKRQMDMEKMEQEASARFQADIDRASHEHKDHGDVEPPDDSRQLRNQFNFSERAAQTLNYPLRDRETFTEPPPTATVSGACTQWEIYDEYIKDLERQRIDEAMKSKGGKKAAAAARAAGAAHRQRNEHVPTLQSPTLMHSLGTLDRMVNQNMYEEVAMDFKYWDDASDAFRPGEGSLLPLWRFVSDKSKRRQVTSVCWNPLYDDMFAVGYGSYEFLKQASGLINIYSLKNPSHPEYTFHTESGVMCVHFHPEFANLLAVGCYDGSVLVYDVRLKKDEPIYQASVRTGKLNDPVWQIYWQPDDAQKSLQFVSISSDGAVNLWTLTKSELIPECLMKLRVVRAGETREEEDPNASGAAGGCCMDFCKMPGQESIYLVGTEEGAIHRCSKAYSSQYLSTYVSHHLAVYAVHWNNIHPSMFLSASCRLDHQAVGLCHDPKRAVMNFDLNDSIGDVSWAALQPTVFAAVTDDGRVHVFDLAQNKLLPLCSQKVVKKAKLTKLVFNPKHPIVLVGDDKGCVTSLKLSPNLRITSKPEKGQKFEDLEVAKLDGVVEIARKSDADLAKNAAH

B1: Outer dynein arm docking complex subunit DC1, not tagged (natural protein)
chain: not shown
B2: Outer arm dynein intermediate chain 1 (IC1), not tagged (natural protein, Chlamydomonas reinhardtii, UniProt Q39578 1-683, looked up)
chain: T2 sequence (looked up)
B3: Outer arm dynein intermediate chain 2 with C-terminal 6xHis (IC2-6xHis) (natural protein, Chlamydomonas reinhardtii, UniProt P27766 1-567, looked up)
chain: MEIYHQYIKLRKQFGRFPKFGDEGSEMLADIRPNEDHGKEYIPRNPVTTVTQCVPEMSEHEANTNAVILVNKAMSHVEGGWPKDVDYTEAEHTIRYRKKVEKDEDYIRTVVQLGSSVEDLIKQNNAVDIYQEYFTNVTMDHTSEAPHVKTVTVFKDPNNIKRSASYVNWHPDGSVPKVVVAYSILQFQQQPAGMPLSSYIWDVNNPNTPEYEMVPTSQICCAKFNLKDNNLVGAGQYNGQLAYFDVRKGNGPVEATPIDISHRDPIYDFAWLQSKTGTECMTVSTDGNVLWWDLRKMNECVENMPLKEKNSETTVGGVCLEYDTNAGPTNFMVGTEQGQIFSCNRKAKNPVDRVKYVLSGHHGPIYGLRRNPFNSKYFLSIGDWTARVWVEDTAVKTPILTTKYHPTYLTGGTWSPSRPGVFFTIKMDGAMDVWDLYYKHNEPTLTVQVSDLALTAFAVQESGGTVAVGTSDGCTSVLQLSTGLSEASPAEKANINAMFERETTREKNLEKAIKEAKVKARKEQGRRDEVKDNVTEEQLKALEDEFFKTTDPAVGGGYGAGEGAAAE

For test [1], the target named is T1, Outer dynein arm docking complex …. Put plainly: pull-down.
Test [2] addresses B3. Put plainly: pull-down.
The target in test [3] is T2, Outer arm dynein intermediate chain 1 …. Put plainly: co-IP.

As to B1, the “stoichiometry N” value in test [1] was 1 DC1:DC2.

For the molecule B2, the “stoichiometry N” value in test [2] is 1 IC1:IC2. With B3, in test [3], the binding result is “binds”.
